Molecular target: the molecule itself
Assay: cryo-EM structure

B1: Full-length GSDMD(D275A), C-terminal Flag, palmitoylated (natural protein, human, UniProt P57764 1-484, looked up)
chain: MGSAFERVVRRVVQELDHGGEFIPVTSLQSSTGFQPYCLVVRKPSSSWFWKPRYKCVNLSIKDILEPDAAEPDVQRGRSFHFYDAMDGQIQGSVELAAPGQAKIAGGAAVSDSSSTSMNVYSLSVDPNTWQTLLHERHLRQPEHKVLQQLRSRGDNVYVVTEVLQTQKEVEVTRTHKREGSGRFSLPGATCLQGEGQGHLSQKKTVTIPSGSTLAFRVAQLVIDSDLDVLLFPDKKQRTFQPPATGHKRSTSEGAWPQLPSGLSMMRCLHNFLTAGVPAEGAFTEDFQGLRAEVETISKELELLDRELCQLLLEGLEGVLRDQLALRALEEALEQGQSLGPVEPLDGPAGAVLECLVLSSGMLVPELAIPVVYLLGALTMLSETQHKLLAEALESQTLLGPLELVGSLLEQSAPWQERSTMSLPPGLLGNSWGEGAPAWVLLDECGLELGEDTPHVCWEPQAQGRMCALYASLALLSGLSQEPH
modifications: S-palmitoylation at Cys191
- stoichiometry N: 33
